Experimental data from patent US20170247447A1 (Hoffmann-La Roche, published 2017).
Changes are numbered by the printed parent chain. Like-named read-outs stand apart in the source and are kept apart here.

Columns and labels:
human IL-1beta [1] = biological target: T1, human IL-1beta (human, UniProt P01584 117-269); assay: cell-based or functional assay
human IL-1beta [2] = biological target: T1, human IL-1beta; assay: cell-based or functional assay; remark: listed apart in the source
human IL-1beta [3] = biological target: T1, human IL-1beta; assay: cell-based or functional assay; remark: listed apart in the source
human IL-1beta [4] = biological target: T1, human IL-1beta; assay: cell-based or functional assay; remark: listed apart in the source
human IL-1beta [5] = biological target: T1, human IL-1beta; assay: cell-based or functional assay; remark: listed apart in the source
human IL-1beta [6] = biological target: T1, human IL-1beta; assay: cell-based or functional assay; remark: listed apart in the source
human IL-1beta [7] = biological target: T1, human IL-1beta; assay: cell-based or functional assay; remark: listed apart in the source
human IL-1beta [8] = biological target: T1, human IL-1beta; assay: SPR (BIAcore T200), antibody captured via anti-human Fc, human IL-1beta in solution
Method: All experiments were performed at 25° C. using HBS-P (10 mM His, 140 mM NaCl, 0.05% Tween 20 pH 7.4) as running and dilution buffer. Anti-human Fc antibodies were immobilized on a Series S CM5 Sensor Chip (GE Healthcare) using standard amine coupling chemistry. Bispecific antibodies were captured on the surface leading to a capturing response of 100-200 RU. […] The dissociation phase was monitored for 600 sec by washing with running buffer. The surface was regenerated by injecting 3 M MgCl2 (for anti-human Fc antibody) or 10 mM Glycine pH 1.5 (for anti-mouse Fc antibody) for 60 sec at a flow rate of 5 μl/min. Bulk refractive index differences were corrected by subtracting the response obtained from a mock surface. Blank injections were subtracted (double referencing). The derived curves were fitted to a 1:1 Langmuir binding model using the BIAevaluation software.

human IL-1beta [9] = biological target: T1, human IL-1beta; assay: cell-based or functional assay; remark: listed apart in the source
cynomolgus IL-1beta [10] = biological target: T2, cynomolgus IL-1beta (cynomolgus, UniProt P79182 117-268); assay: SPR (BIAcore), antibody captured via anti-Fc, IL-1beta in solution
Method: All experiments were performed at 25° C. using HBS-P (10 mM His, 140 mM NaCl, 0.05% Tween 20 pH 7.4) as running and dilution buffer. Anti-human or anti-mouse Fc antibodies were immobilized on a Series S CMS Sensor Chip (GE Healthcare) using standard amine coupling chemistry. […] The dissociation phase was monitored for 600 sec by washing with running buffer. […] The surface was regenerated by injecting 3 M MgCl2 (for anti-human Fc antibody) or 10 mM Glycine pH 1.5 (for anti-mouse Fc antibody) for 60 sec at a flow rate of 5 μl/min. Bulk refractive index differences were corrected by subtracting the response obtained from a mock surface. Blank injections were subtracted (double referencing). The derived curves were fitted to a 1:1 Langmuir binding model using the BIAevaluation software.

human IL-1beta [11] = biological target: T1, human IL-1beta; assay: as above
cynomolgus IL-1beta [12] = biological target: T2, cynomolgus IL-1beta; assay: as above; remark: listed apart in the source
human IL-1beta [13] = biological target: T1, human IL-1beta; assay: as above; remark: listed apart in the source
human IL-1beta [14] = biological target: T1, human IL-1beta; assay: SPR competition, 10 nM human IL-1beta pre-incubated with antibody, competitor immobilized human IL-1RI
Method: All experiments were performed at 25° C. using HBS-P (10 mM His, 140 mM NaCl, 0.05% Tween 20 pH 7.4) as running and dilution buffer. Human IL-1RI was immobilized on a Series S CM5 Sensor Chip (GE Healthcare) using standard amine coupling chemistry. […] The surface was regenerated by injecting 10 mM NaOH for 60 sec at a flow rate of 5 μl/min. Bulk refractive index differences were corrected by subtracting the response obtained from a mock surface.

human IL-1beta [15] = biological target: T1, human IL-1beta; assay: immunoprecipitation radioimmunoassay with 125I-IL-1beta
Method: Determination of antibody affinity—Monoclonal antibody affinity was determined from data obtained using an immunoprecipitation radioimmunoassay. Briefly, 5000 cpm/tube of ¹²⁵IIL-1beta was incubated with dilutions of purified monoclonal antibody in 0.3 ml of 1% non-fat dry milk/0.5% Thimerosal/PBS overnight at 4° C. Antigen-antibody complexes were precipitated by the addition of 100 μL/tube each of 10% normal mouse serum/PBS and 4 mg/ml goat anti mouse IgG sera in PBS. After 4 hours at 4° C., the 1/ml tube of ice-cold 2% polyethylene glycol-6000 was added and the tubes centrifuged at 3000*g for 20 min. at 4° C. The supernatants were aspirated and the pellets counted in a gamma counter.
Affinity constants were calculated using data obtained from an immunoprecipitation radioimmunoassay (RIA) of ¹²⁵IIL-1beta binding of different antibody concentrations as described above.

T2 sequence (P79182 117-268 limits assumed): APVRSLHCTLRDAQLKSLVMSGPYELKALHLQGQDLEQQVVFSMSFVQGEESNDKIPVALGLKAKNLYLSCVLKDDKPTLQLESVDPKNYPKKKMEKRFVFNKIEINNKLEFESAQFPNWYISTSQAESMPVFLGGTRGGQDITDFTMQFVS

B1: mumAb (novel murine anti-human IL-1beta antibody) (antibody, V domains shown)
VH: EVQLQQSGPELEKPGASVKISCKASGYSFTDYNMNWVRQSNGKSLEWIGNIDPYYGGTTYNQKFKDKATLTVDKSSSTAYMQLKSLTSEDSAVYYCAREGSPTRYYVMDYWGQGTSVTVSS
VL: DIQMTQSPASLSASVGETVTITCRASENIYSNLAWYQQKQGKSPQLLVYAATNLADGVPSRFSGSGSGTQFSLKINSLQPEDFGSYYCHHFYNTPWTFGGGTKLEIK
Human IL-1beta [1]
  IC50, inhibition of ICAM-1 expression, HUVEC cells: 16.5 nM
Human IL-1beta [2]
  IC50, inhibition of ICAM-1 expression, A549 cells: 0.7 nM
Human IL-1beta [3]
  EC50, reduction of IL-6 expression, A549 cells: 1.09 nM

B2: Canakinumab (antibody, V domains shown)
VH: QVQLVESGGGVVQPGRSLRLSCAASGFTFSVYGMNWVRQAPGKGLEWVAIIWYDGDNQYYADSVKGRFTISRDNSKNTLYLQMNGLRAEDTAVYYCARDLRTGPFDYWGQGTLVTVSS
VL: EIVLTQSPDFQSVTPKEKVTITCRASQSIGSSLHWYQQKPDQSPKLLIKYASQSFSGVPSRFSGSGSGTDFTLTINSLEAEDAAAYYCHQSSSLPFTFGPGTKVDIKR
Human IL-1beta [4]
  EC50, reduction of IL-6 expression, A549 cells: 0.0864 µg/mL
Human IL-1beta [5]
  IC50, inhibition of ICAM-1 expression, HUVEC cells: 9.02 nM
Human IL-1beta [6]
  IC50, inhibition of ICAM-1 expression, A549 cells: 0.31 nM
Human IL-1beta [7]
  EC50, reduction of IL-6 expression, A549 cells: 0.12 nM

B3: huH34-2 (antibody, V domains shown)
VH: QVQLVQSGAEVKKPGASVKVSCKASGYTFTGYYMHWVRQAPGQGLEWIGYISSYNAFTTYNQKFRGRATFTVDTSISTAYMELSRLRSDDTAVYYCVRSDYYGTSLYWGQGTLVTVSS
VL: EIVLTQSPATLSLSPGERATLSCRASSSVSYMHWSQQKPGQAPRLLIYSTSNLASGIPARFSGSGSGTDFTLTISSLEPEDFAVYYCHQWSNYYTFGQGTKLEIK
notes: Humanized, captured by anti-human Fc in SPR; also called huH34-2 bivalent
Human IL-1beta [8]
  t½: 101 s
Human IL-1beta [5]
  IC50, inhibition of ICAM-1 expression, HUVEC cells: 0.3 nM
Human IL-1beta [6]
  IC50, inhibition of ICAM-1 expression, A549 cells: 0.23 nM
Human IL-1beta [7]
  EC50, reduction of IL-6 expression, A549 cells: 0.11 nM

B4: antibody 0032 (bispecific anti-VEGF/IL-1beta CrossMab antibody) (bispecific antibody, V domains shown)
VH 1: EVQLVESGGGLVQPGGSLRLSCAASGYDFTHYGMNWVRQAPGKGLEWVGWINTYTGEPTYAADFKRRFTFSLDTSKSTAYLQMNSLRAEDTAVYYCAKYPYYYGTSHWYFDVWGQGTLVTVSS
VL 1: DIQLTQSPSSLSASVGDRVTITCSASQDISNYLNWYQQKPGKAPKVLIYFTSSLHSGVPSRFSGSGSGTDFTLTISSLQPEDFATYYCQQYSTVPWTFGQGTKVEIK
VH 2: B3 VH
VL 2: B3 VL
notes: also called anti-IL-1beta/VEGF antibody
Human IL-1beta [4]
  EC50, reduction of IL-6 expression, A549 cells: 0.0387 µg/mL
Human IL-1beta [8]
  t½: 38 s

B5: huH34-3 (antibody, V domains shown)
VH: B3 VH with N55S
VL: B3 VL
Human IL-1beta [6]
  IC50, inhibition of ICAM-1 expression, A549 cells: 2.23 nM
Human IL-1beta [7]
  EC50, reduction of IL-6 expression, A549 cells: 1.09 nM

B6: antibody 0031 (bispecific anti-ANG2/IL-1beta CrossMab antibody) (bispecific antibody, V domains shown)
VH 1: B3 VH
VL 1: B3 VL
VH 2: not shown
VL 2: SYVLTQPPSVSVAPGQTARITCGGNNIGSKSVHWYQQKPGQAPVLVVYDTSDRPSGIPERFSGSNSGNTATLTISRVEAGDEADYYCQVWDSSSDHWVFGGGTKLTVLSS
notes: also called anti-IL-1beta/ANG2 antibody
Human IL-1beta [4]
  EC50, reduction of IL-6 expression, A549 cells: 0.017 µg/mL
Human IL-1beta [9]
  IC50, inhibition of ICAM-1 expression, A549 cells: 0.104 µg/mL
Human IL-1beta [8]
  t½: 38 s

B7: huH34-1 (antibody, V domains shown)
VH: B3 VH with I48M, N55S, A56G, N61A, R65Q, A68V, F70M, V72R, V97A
VL: B3 VL
Human IL-1beta [6]
  IC50, inhibition of ICAM-1 expression, A549 cells: > 7 nM
Human IL-1beta [7]
  EC50, reduction of IL-6 expression, A549 cells: 5.52 nM

B8: murine anti-IL-1beta antibody ILB1-H34 (antibody, mouse IgG1, V domains shown)
VH: EVQLQQSGPELVKTGASVKISCKASGYSFTGYYMHWVKQSHGKSLEWIGYISCYNAFTTYNQRFRGKATFTVDTSSSTAYMQFNSLTSEDSAVYYCVRSDYYGTSLYWGQGTTLTVSS
VL: QIVLTQSPAIMSASLGEEITLTCSASSSVSYMHWSQQKSGSSPKLLIYSTSNLASGVPSRFSGSGSGTFYSLTISSVEAEDAADYYCHQWSNYYTFGGGTKLEIK
notes: also called HLB1-H34
Cynomolgus IL-1beta [10]
  Kd: 0.05 nM
  koff: 9.8e-05 s⁻¹
  kon: 1.99e+06 M⁻¹ s⁻¹
Human IL-1beta [11]
  Kd: 0.07 nM
  koff: 0.000127 s⁻¹
  kon: 1.85e+06 M⁻¹ s⁻¹
Human IL-1beta [5]
  IC50, inhibition of ICAM-1 expression, HUVEC cells: 0.24 nM
Human IL-1beta [6]
  IC50, inhibition of ICAM-1 expression, A549 cells: 0.18 nM
Cynomolgus IL-1beta [12]
  Kd: 0.05 nM
  koff: 9.8e-05 s⁻¹
  kon: 1.99e+06 M⁻¹ s⁻¹
Human IL-1beta [13]
  Kd: 0.07 nM
  koff: 0.000127 s⁻¹
  kon: 1.85e+06 M⁻¹ s⁻¹
Human IL-1beta [14]
  IC50: 3.5 nM
Human IL-1beta [15]
  Ka: 6.4e+10 M⁻¹
